# Experimental data: patent US20210070872A1 (AGENUS, published 2021)
# T1: biotinylated GITR (human, UniProt Q9Y5U5 26-161, limits assumed, biotinylated (sites not given))
# T1 construct: also called GITR-bio; Biotin-GITR
# T1 sequence: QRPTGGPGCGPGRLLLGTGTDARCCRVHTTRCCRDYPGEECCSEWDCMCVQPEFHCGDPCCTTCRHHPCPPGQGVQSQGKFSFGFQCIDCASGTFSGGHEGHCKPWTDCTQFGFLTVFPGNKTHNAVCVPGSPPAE
# Biological target: T1, biotinylated GITR
# Assay: BLI (Octet), biotin-GITR on streptavidin tips, antibody supernatant
# Experimental: Several hundred germlined antibodies were selected based on binding kinetics as determined by Octet measurements (Octet RED 96 system; ForteBio™ Inc., Menlo Park, Calif.). The experimental procedure was configured according to the instruction manual of the instrument. Biotin-GITR was bound to Streptavidin biosensor (SA) and PBS (pH 7.4) was used as a blank control. Briefly, the interaction analyses were conducted at 30° C. in running buffer (PBS, 0.05% Tween, pH7.4). Sensor tips were pre-wet for 10 minutes in running buffer immediately prior to use, and the micro plates used in the Octet were filled with 200 μl of sample or buffer per well and agitated at 800 rpm. For the experiments, commercially available precoated SA tips were used. Biotinylated GITR was loaded onto the ForteBio SA fibers in PBS pH7.4 for 10 minutes and washed for 4 minutes. For the association phase, the ligand-coated SA tips were immersed for 5 minutes in cell culture supernatant that was diluted 1:10 in running buffer prior to the measurement. Dissociation of the antibody-antigen complex was measured in wells containing the Octet buffer alone for 5 minutes. After each run, the tips were regenerated with Glycine (10 mM, pH 2.0). Affinity, Kₒₙ and Koff were determined with Octet evaluation software v6.3 using a 1:1 binding model with local full fitting.
Binder,Kd,koff,kon
"germline variant antibody 91 (H1917F03 / K1917F03) (antibody, V domains shown, IGHG1/IGKC expression vectors; measured from CHO culture supernatant; also called Antibody ID 91) VH: QVQLVQSGTEVKKPGASVKVSCKGSGYTFTEYAMHWVRQAPGQGMEWMGLIRTYSGGVSYNQKFQERATMTVDTSISTAYMELSRLRSDDTAVYYCAKSGTVRGFAYWGQGTLVTVSS VL: DIVMTQSPDSLAVSLGERATINCKSSQSLLNSGNQKNYLSWYQQKPGQPPKLLIYWASTRESGVPDRFSGSGSGTDFTLTISSVQAEDVAVYHCQNEYSFPYTFGQGTKLEIK",3.07 nM,0.00159 s⁻¹,520000 M⁻¹ s⁻¹
"germline variant antibody 37 (H1916D07 / K1916D07) (antibody, V domains shown, IGHG1/IGKC expression vectors; measured from CHO culture supernatant; also called Antibody ID 37) VH: QVQLVQSGTEVKKPGASVKVSCKGSGYTFTEYAMYWVRQAPGQGMEWIGLIRTFSGEVTYNQKFKDRVTMTVDTSISTAYMELSRLRSDDTAVYYCAKSGTVRGFAYWGQGTLVTVSS VL: DIVMTQSPDSLAVSLGERATINCKSSQSLLNSGNQKNYLTWYQQKPGQPPKLLIYWASTRESGVPDRFTGSGSGTDFTLTISSLQAEDVAVYHCQNEYSYPYTFGQGTKLEIK",0.0317 nM,0.000242 s⁻¹,7.64e+06 M⁻¹ s⁻¹
"germline variant antibody 70 (H1917B04 / K1917B04) (antibody, V domains shown, IGHG1/IGKC expression vectors; measured from CHO culture supernatant; also called Antibody ID 70) VH: QVQLVQSGTEVKKPGASVKVSCKASGYTFTGYAMYWVRQAPGQGMEWIGVIRTYSGDVTYNQKFKDRATMTVDTSISTAYMELSRLRSDDTAVYYCAKSGTVRGFAYWGQGTLVTVSS VL: DIVMTQSPDSLAVSLGERATINCKSSQSLLNSGNQKNYLSWYQQKPGQPPKLLIYWASTRESGVPDRFSGSGSGTDFTLTISSLQAEDVAVYHCQNDYSFPYTFGQGTKLEIK",2.01 nM,0.000879 s⁻¹,437000 M⁻¹ s⁻¹
"germline variant antibody 18 (H1916B09 / K1916B09) (antibody, V domains shown, IGHG1/IGKC expression vectors; measured from CHO culture supernatant; also called Antibody ID 18) VH: QVQLVQSGTEVKKPGASVKVSCKASGYTFTGYAMYWVRQAPGQGMEWIGLIRTFSGEVTYNQKFRGRVTMTVDTSISTAYMELSRLRSDDTAVYYCAKSGTVRGFAYWGQGTLVTVSS VL: DIVMTQSPDSLAVSLGERATINCKSSQSLLNSSNQKNYLTWYHQKPGQPPKMLIYWASTRESGVPDRFTGSGSGTDFTLTISSVQAEDVAVYYCQNDYSYPYTFGQGTKLEIK",3.77 nM,0.000824 s⁻¹,219000 M⁻¹ s⁻¹
"germline variant antibody 35 (H1916D05 / K1916D05) (antibody, V domains shown, IGHG1/IGKC expression vectors; measured from CHO culture supernatant; also called Antibody ID 35) VH: QVQLVQSGAEAKKPGASVKVSCKGSGYTFTGYAMYWVRQAPGQGMEWIGVIRTFSGDVTYNQKFRGRVTMTVDTSISTAYMELSRLRSDDTAVYYCAKSGTVRGFAYWGQGTLVTVSS VL: DIVMTQSPDSLAVSLGERATINCKSSQSLLNSGNQKNYLTWYHQKPGQPPKLLIYWASTRESGVPDRFTGSGSGTDFTLTISSVQAEDVAVYYCQNDYSYPYTFGQGTKLEIK",0.187 nM,0.00024 s⁻¹,1.29e+06 M⁻¹ s⁻¹
"germline variant antibody 42 (H1916E01 / K1916E01) (antibody, V domains shown, IGHG1/IGKC expression vectors; measured from CHO culture supernatant; also called Antibody ID 42) VH: QVQLVQSGTEVKKPGASVKVSCKASGYTFTDYAMYWVRQAPGQGLEWIGVIRTFSGDLTYNQKFQDRVTMTVDTSISTAYMELSRLRSDDTAVYYCAKSGTVRGFAYWGQGTLVTVSS VL: DIVMTQSPDSLAVSLGERATINCKSSQSLLNSGNQKNYLSWYQQKPGQPPKLLIYWASTRESGVPDRFSGSGSGTDFTLTISSLQAEDVAVYYCQNDYSYPYTFGQGTKLEIK",0.377 nM,0.000157 s⁻¹,417000 M⁻¹ s⁻¹
"germline variant antibody 97 (H1917G07 / K1917G07) (antibody, V domains shown, IGHG1/IGKC expression vectors; measured from CHO culture supernatant; also called Antibody ID 97) VH: QVQLVQSGTEVKKPGASVKVSCKGSGYTFTEYAMHWVRQAPGQGMEWIGLIRTFSGGLSYNQKFRDRVTMTVDKSISTAYMELSRLRSDDTAVYYCAKSGTVRGFAYWGQGTLVTVSS VL: DIVMTQSPDSLAVSLGERATINCKSSQSLLNSGNQKNYLTWYHQKPGQPPKLLIYWASTRESGVPDRFTGSGSGTDFTLTISSVQAEDVAVYHCQNEYSFPYTFGQGTKLEIK",1.43 nM,0.000761 s⁻¹,534000 M⁻¹ s⁻¹
"germline variant antibody 49 (H1916E11 / K1916E11) (antibody, V domains shown, IGHG1/IGKC expression vectors; measured from CHO culture supernatant; also called Antibody ID 49) VH: QVQLVQSGTEVKKPGASVKVSCKGSGYTFTGYAMYWVRQAPGQGLEWMGVIRTYSGDVTYNQKFRERATMTVDTSISTAYMELSRLRSDDTAVYYCAKSGTVRGFAYWGQGTLVTVSS VL: DIVMTQSPDSLAVSLGERATINCKSSQSLLNSGNQKNYLTWYHQKPGQPPKLLIYWASTRESGVPDRFSGSGSGTDFTLTISSVQAEDVAVYHCQNDYSFPYTFGQGTKLEIK",2.09 nM,0.000707 s⁻¹,338000 M⁻¹ s⁻¹
"germline variant antibody 78 (H1917D01 / K1917D01) (antibody, V domains shown, IGHG1/IGKC expression vectors; measured from CHO culture supernatant; also called Antibody ID 78) VH: QVQLVQSGAEVKKPGASVKVSCKGSGYTFTDYAMYWVRQAPGQGLEWIGVIKTYSGGVTYNQKFRDRATMTVDTSISTAYMELSRLRGDDTAVYYCAKSGTVRGFAYWGRGTLVTVSS VL: DIVMTQSPDSLAVSLGERATINCKSSQSLLNSGNQKNYLTWYHQKPGQPPKMLIYWASTRESGVPDRFTGSGSGTDFTLTISSVQAEDVAVYHCQNDYSYPYTFGQGTKLEIK",1 nM,0.000327 s⁻¹,325000 M⁻¹ s⁻¹
"germline variant antibody 5 (H1916A06 / K1916A06) (antibody, V domains shown, IGHG1/IGKC expression vectors; measured from CHO culture supernatant; also called Antibody ID 5) VH: QVQLVQSGAEVKKPGASVKVSCKGSGYTFTEYAMHWVRQAPGQGLEWMGLIRTYSGGVTYNQKFRGRVTMTVDTSISTAYMELSRLRSDDTAVYYCAKSGTVRGFAYWGQGTLVTVSS VL: DIVMTQSPDSLAAPGERATINCKSSQSLLNSSNQKNYLTWYHQKPGQPPKLLIYWASTRESGVPDRFTGSGSGTDFTLTISSVQAEDVAVYYCQNEYSFPYTFGQGTKLEIK",1.63 nM,0.000966 s⁻¹,591000 M⁻¹ s⁻¹
"germline variant antibody 94 (H1917G01 / K1917G01) (antibody, V domains shown, IGHG1/IGKC expression vectors; measured from CHO culture supernatant; also called Antibody ID 94) VH: QVQLVQSGTEVKKPGASVKVSCKGSGYTFTGYAMYWVRQAPGQGLEWIGVIRTFSGGVTYNQKFRDRVTMTVDKSISTAYMELSRLRSDDTAVYYCAKSGTVRGFAYWGQGTFVTVSS VL: DIVMTQSPDSLAVSLGERATINCKSSQSLLNSGNQKNYLTWYQQKPGQPPKLLIYWASTRESGVPDRFTGSGSGTDFTLTISSVQAEDVAVYHCQNDYSYPYTFGQGTKLEIK",1.18 nM,0.00044 s⁻¹,372000 M⁻¹ s⁻¹
"germline variant antibody 95 (H1917G05 / K1917G05) (antibody, V domains shown, IGHG1/IGKC expression vectors; measured from CHO culture supernatant; also called Antibody ID 95) VH: QVQLVQSGAEVKKPGASVKVSCKGSGYTFTDYAMYWVRQAPGQGLEWMGLIRTYSGGVSYNQKFRGRVTMTVDTSISTAYMELSRLRSDDTAVYYCAKSGTVRGFAYWGQGTFVTVSS VL: DIVMTQSPDSLAVSLGERATINCKSSQSLLNSGNQKNYLTWYQQKPGQPPKMLIYWASTRESGVPDRFSGSGSGTDFTLTISSVQAEDVAVYHCQNDYSFPYTFGQGTKLEIK",2.21 nM,0.000672 s⁻¹,305000 M⁻¹ s⁻¹
"germline variant antibody 101 (H1917H01 / K1917H01) (antibody, V domains shown, IGHG1/IGKC expression vectors; measured from CHO culture supernatant) VH: QVQLVQSGAEVKKPGASVKVSCKASGYTFTDYAMHWVRQAPGQGLEWMGLIRTFSGGVSYNQKFQDRVTMTVDKSISTAYMELSRLRSDDTAVYYCAKSGTVRGFAYWGQGTLVTVSS VL: DIVMTQSPDSLAVSLGERATINCKSSQSLLNSSNQKNYLTWYHQKPGQPPKLLIYWASTRESGVPDRFSGSGSGTDFTLTISSVQAEDVAVYHCQNDYSFPYTFGQGTKLEIK",0.354 nM,0.000332 s⁻¹,936000 M⁻¹ s⁻¹
"germline variant antibody 107 (H1917H09 / K1917H09) (antibody, V domains shown, IGHG1/IGKC expression vectors; measured from CHO culture supernatant) VH: QVQLVQSGAEVKKPGASVKVSCKGSGYTFTGYAMYWVRQAPGQGLEWMGVIRTYSGDVSYNQKFRDRVTMTVDTSISTAYMELSRLRSDDTAVYYCAKSGTVRGFAYWGQGTLVTVSS VL: DIVMTQSPDSLAVSLGERATINCKSSQSLLNSGNQKNYLSWYHQKPGQPPKLLIYWASTRESGVPDRFTGSGSGTDFTLTISSVQAEDVAVYYCQNDYSYPYTFGQGTKLEIK",2.21 nM,0.000657 s⁻¹,298000 M⁻¹ s⁻¹
"germline variant antibody 92 (H1917F05 / K1917F05) (antibody, V domains shown, IGHG1/IGKC expression vectors; measured from CHO culture supernatant; also called Antibody ID 92) VH: QVQLVQSGAEVKKPGASVKVSCKGSGYTFTEYAMYWVRQAPGQGLEWMGLIRTFSGGVTYNQKFQGRATMTVDTSISTAYMELSRLQSDDTAVYYCAKSGTVRGFAYWGQGTLVTVSS VL: DIVMTQSPDSLAVSLGERATINCKSSQSLLNSGNQKNYLTWYHQKPGQPPKMLIYWASTRESGVPDRFSGSGSGTNFTLTISSVQAEDVAVYHCQNDYSYPYTFGQGTKLEIK",1.01 nM,0.000361 s⁻¹,357000 M⁻¹ s⁻¹
"germline variant antibody 96 (H1917G06 / K1917G06) (antibody, V domains shown, IGHG1/IGKC expression vectors; measured from CHO culture supernatant; also called Antibody ID 96) VH: QVQLVQSGAEVKKPGASVKVSCKGSGYTFTEYAMYWVRQAPGQGMEWMGVIRTYSGGLTYNQKFRDRVTMTVDTSISTAYMELSRLRSDDTAVYYCAKSGTVRGFAYWGQGTLVTVSS VL: DIVMTQSPDSLAVSLGERATINCKSSQSLLNSSNQKNYLSWYHQKPGQPPKLLIYWASTRESGVPDRFSGSGSGTDFTLTISSLQAEDVAVYHCQNDYSYPYTFGQGTKLEIK",1.09 nM,0.000373 s⁻¹,344000 M⁻¹ s⁻¹
"germline variant antibody 105 (H1917H07 / K1917H07) (antibody, V domains shown, IGHG1/IGKC expression vectors; measured from CHO culture supernatant) VH: QVQLVQSGAEVKKPGASVKVSCKGSGYTFTEYAMYWVRQAPGQGLEWMGLIRTFSGGVSYNQKFKGRVTMTVDTSISTAYMELSRLRSDDTAVYYCAKSGTVRGFAYWGQGTLVTVSS VL: DIVMTQSPDSLAVSLGERATINCKSSQSLLNSGNQKNYLSWYQQKPGQPPKLLIYWASTRESGVPDRFSGSGSGTDFTLTISSVQAEDVAVYYCQNDYSYPYTFGQGTKLEIK",1.38 nM,0.000486 s⁻¹,351000 M⁻¹ s⁻¹
"germline variant antibody 102 (H1917H02 / K1917H02) (antibody, V domains shown, IGHG1/IGKC expression vectors; measured from CHO culture supernatant; also called Antibody ID 102) VH: QVQLVQSGTEVKKPGASVKVSCKASGYTFTGYAMYWVRQAPGQGLEWIGVIRTYSGGVSYNQKFRDRVTMTVDTSISTAYMELSRLRSDDTAVYYCAKSGTVRGFAYWGQGTLVTVSS VL: DIVMTQSPDSLAVSLGERATINCKSSQSLLNSSNQKNYLSWYQQKPGQPPKLLIYWASTRESGVPDRFTGSGSGTDFTLTISSVQAEDVAVYYCQNDYSYPYTFGQGTKLEIK",1.97 nM,0.000632 s⁻¹,321000 M⁻¹ s⁻¹
